{"source": "paper PMC9481871", "about": "“Anti-TGF-β1 aptamer enhances therapeutic effect of tyrosine kinase inhibitor, gefitinib, on non-small cell lung cancer in xenograft model”", "experiment_in_all_cases": "SPR; 500 nM protein; aptamer immobilized; SPR (Biacore): 145 mM NaCl, 5.4 mM KCl, 0.8 mM MgCl2, 1.8 mM CaCl2, 20 mM Tris-HCl pH 7.6, 0.05% Tween 20; temperature not given", "details_in_all_cases": "protein: recombinant; chain copies: 2", "key": {"human TGF-β3": {"target": "T1, human TGF-β3 (Homo sapiens, UniProt P10600 301-412)", "T1 sequence": "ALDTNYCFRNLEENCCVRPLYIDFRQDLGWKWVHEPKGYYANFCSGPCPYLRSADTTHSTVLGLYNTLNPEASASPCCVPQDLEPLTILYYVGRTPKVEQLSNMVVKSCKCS"}, "human TGF-β1 (active)": {"target": "human TGF-β1 (active) (Homo sapiens, UniProt P01137 279-390)", "sequence (P01137 279-390)": "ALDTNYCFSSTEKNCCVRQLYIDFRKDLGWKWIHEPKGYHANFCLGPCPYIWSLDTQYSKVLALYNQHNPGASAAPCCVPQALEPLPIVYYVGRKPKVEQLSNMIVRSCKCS"}, "mouse TGF-β1 (active)": {"target": "mouse TGF-β1 (active) (Mus musculus, UniProt P04202 279-390)", "sequence (P04202 279-390)": "as the sequence (P01137 279-390) above, with A75S counted along it"}, "human TGF-β2": {"target": "T2, human TGF-β2 (Homo sapiens, UniProt P61812 303-414)", "T2 sequence": "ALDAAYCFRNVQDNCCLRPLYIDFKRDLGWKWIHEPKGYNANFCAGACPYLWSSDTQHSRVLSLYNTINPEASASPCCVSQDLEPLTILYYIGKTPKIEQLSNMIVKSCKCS"}}}
{"binder": "GGCAUAAGGGAGGGGAGACUUGUGGAGGGCAAG (structured_RNA, 2'-fluoro pyrimidines (SELEX with 2'-F-CTP and 2'-F-UTP); parent of APT-β1-OMe without 2'-OMe)", "note": "[APT-β1]", "values": [{"measurement": "binding result", "setting": "human TGF-β3", "result": "no binding"}, {"measurement": "binding result", "setting": "human TGF-β1 (active)", "result": "binds"}, {"measurement": "binding result", "setting": "mouse TGF-β1 (active)", "result": "binds"}, {"measurement": "binding result", "setting": "human TGF-β2", "result": "no binding"}]}
